From the nanobody polyreactivity screen of Harvey et al. (2022)

Test: yeast display, Sf9 membrane polyspecificity reagent, FACS + sequencing; frameworks hold sequencing errors
In short: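 Nanobodies came from a synthetic yeast display library in Saccharomyces cerevisiae BJ5465, induced with galactose for 36–48 hours and stained for 1 hour at 4 °C with 10% biotinylated, detergent-solubilized Sf9 membrane reagent. Cells were enriched on streptavidin microbeads and then FACS-sorted, with low and high (top ~1%) gates set on anti-HA fluorescence for expression and streptavidin fluorescence for reagent binding. Each polyreactivity label reflects the gate a clone came from. Genes were amplified by colony PCR, sequenced by MiSeq 2 × 250 and filtered by CDR length.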

Row | Sequence | polyreactivity (PSR sort gate)
1 | QVQLVESGGGLVQAGGSLRLSCAASGRIFYFYAMGWYRQAPGKERELVAAITSGGGTYYADSVKGRFTISRDNAKNTVYLQMNSLKPEDTAVYYCDVRVYRTSWQGYYYWGQGTQVTVSS | high polyreactivity
2 | QVQLVESGGGLVQAGGSLSLSCAASGSIFWYYAMGWYRPAPGKERELVATIDVSAGSTYADSVKGRFTIARDNAKNTVYLQMNSLKPEDTAVYDCNADHYPGEVFYVSSTRYEREYWGQGTQVTVSS | low polyreactivity
3 | QVQLVESGGGLVQAGGSLRLSCAASGSTWNRNPMGWYRQAPGKERELVAAISWRGDSTSYADSVKGRFTISRDNAKNTVYLQMNSLKPEDTAVYYCATAHDYAFYRYWYVPSEYNYWGQGTQVTVSS | low polyreactivity
4 | QVQLVESGGGLVQAGGSLRLSCAASGFTFYLYAMGWYRQAPGKERELVAAITGRGTRTYYADSVKGRFTISRDNAKNTVYLQMNSLKPEDTAVYYCATGGANVDGDAYDYWGQGTQVTVSS | high polyreactivity
5 | QVQLVESGGALVQAGGSLRLSCAASGLTFRDNAIGWYRKAPGKERELVDAISTNGGSTYYADSVKGRFTISRDNAKNTVYLQMYSLKPEVTAVYYCAADYDYQYRYYYWGQGTQVTVTS | low polyreactivity
6 | QVQLVESGGGIVQAGGSLRLRCAASGSTFKVYAIGWYRQATGKERELVAAISRGGRTYYADSVKGRFTISRDNAKNTVYLQMNSLKPEDTAVYYCAAGDQYKTRRNGYGYWGQGTQVTLSS | high polyreactivity
7 | QVQLVESGGGLVQAGGSLRLSCAASGRTFIPYGMGWYRQAPGKERELVAAIRDGGSTNYADSVKGRFTISRDNAKNTVYLQMNSLKPADTAVYYCNADLPVYVDYINGGYGYWGQGTQVTVSS | low polyreactivity
8 | QVQLVESVGGLVQAGGSLRLSCAASGTFSPYAMGWYRQAPGKERELVAVITSNTGRTYADSVKGRFTISRDNAKNSVYLQMNSLKPEDTAVYYCAARSTYRHWYRTGSRFDYWGQGTQVTVSS | low polyreactivity
9 | QVQLVESGGGLVQAGGSLRLSCAASGYIFGINDMAWYIQAPGKERELVAAIRISGGSTYYADSVKGRFTISRDNAKNTVYLQMNSLKPEDTAVYYCNAQDDGGLEWRYEEDDYWGQGTQVTVSS | low polyreactivity
10 | QVQLVESGGGLVQAGGSLRLSCAASGIIFARYAMGWYRQAPGKERELVAAISNRGTSTYYADSVKGRFTISRDNAKNTVYLQMNSLKPEDTAVYYCKRVKDGYWGQGTQVTVSS | high polyreactivity
11 | QGQLVESRGGLVQAGGSLRLICAASGFIFFIKSMGWYRQAPGKERELVAAINWTGGSTYADSVKGRFTISRDNAKNTVYLQMNSLKPEDTAVYYCAADPWDIYRRLSQGDHDYWGQGTQVTVSS | low polyreactivity
12 | QVQLVESGGGLVQAGGSLRLSCAASGRIFGVYAMGWYRQAPGKERELVAAITARGGSTYYADSVKGRFTISRDNAKNTVYLQMNSLKPEDTAVYYCATRLYKRTRTITYGYWGQGTQVTVSS | high polyreactivity
13 | QVQLVESGGGLVQAGGSLRLSCAASGSTFGYNAMGWYRQAPGKERELVADITARGGSTYYADSVKGRFTISRANAKNTVYLQMNSLKPEVTAVYYCAARRKRFYYYAGYDYWGQGTQVTVSS | high polyreactivity
14 | QVQLVESGGGLVQAGGSLRLSCAASGGIFDSYAMGWYRQAPGKERELVADITWSGGSTYYADSVKGSFTISRDNAKNTVYLQMNSLKPEDTAVYLCAAVWNSPYDYWGQGTLVTVSS | low polyreactivity
15 | QVQLVESGGGLVQAGGSLRLSCAASGFTITQYGMGWYRQAPGKERELVADITYSGGDTYYADSVKGRFTISRDNAKNTVYLQMNSLKPEDTAVYFCAAYSWKYCFVWGYVYWGQGTQVTVSS | high polyreactivity
16 | QVQLVESGGGLVQAGGSLRLSCAASGRTFLWYAKGWYRQAPGKEMELVATITSGDSTIYADSVKGRFTISRDNEKNTVYLQMNSLKPVDTAVYYCAAGYYYYLRDHDYWGQGTQVTVSS | low polyreactivity
17 | QVQLVESGGGLVQAGRSLRLSCAASGITFDDYDMGCYRQAPGKEREFVAAISFSGSSTYYADSVKGRFTISRDNAKNTVYLLMNSLKPEDTAVYYCNADYVYSGCLYYGKDYWFDYWGHGTQVTVSS | low polyreactivity
18 | QVQLVESGGGLVQAGGSLRLSCAASGRIIGQYAMGWYRQAPGKERELVAAITQRGGSTYYADSVKGRFTISRDNAKNTVYLLMNCLKPEDTAVYYCNKRYRFTGIRDPFDYWGQGTQVTVSS | low polyreactivity
19 | HVQLVESGGGLVQAGGSLRLSCAASGSIFWGNAMGWYRQAAGKERELVAAISWGGGRTYYADSVKGRFTISRDTAKNTVYLQMNSLKPEDTAVYYCNTRYPYVVSTGYDYWGQGTQVTVSS | high polyreactivity
20 | QVQLVESGGGLVQAGGSLRLSCAASGITFGFNAMGWYRQAPGKERELVAAITWSVGRTYYADSVKGRFTISRDNAKNTVYLQMNSLKPEDTAVYYCAKDFEAGDDYFAYDYWGQGTQVTVSS | low polyreactivity
21 | QVQLVESGGGLVQAGGSLRLSCAASGFIFGYNAMDWYRQAPGKERELVAAITSGGSTNYADSVKGRFTISRDNAKNTVYLQMNSLKPEDTAVYYCNTVPGDFRSITDDDWGQGTQVTVSS | low polyreactivity
22 | QVQLVESGGGLVQAGGSLRLSCAASGRIFGTYTMGWYRQAPGKERELVASIRFGGSTYYADSVKGRFTISRDNAKNSVYLQMNSLKPEDTAVYYCNRVYGYNRRYGYWGQGTQVTVSS | high polyreactivity

Row | Sequence | polyreactivity (PSR sort gate)
23 | QVQLVESGGGLVQAGGSLRLSCAASGFTFTANAMGWYRQAPGKERELVAAITRNGGRTYYADSVKGRFTLSRDNAKNNVYLQMNSLKPEDTAVYYCAKPNSQRIHDDYDYWGQGTQVTVSS | high polyreactivity
24 | QVQLVESGGGLVQAGGSLRLSCAASGSIFPDYAMGWYRPAPGKERELVAAIDTSTTDTYYADSVKGRFTISRDNAKNTVYLQMKSQKPEDTAVYYSAADAYDDPYGFWGQGTQVTVSS | high polyreactivity
25 | QVQLVESGGGLVQAGGSLRLSCAASGRIFAPYAMGWYRQAPGKERELVAAITSGGSTNYADSVKGRFTISRDNAKNTVYVQMNSLKPEDTAVYYCAAEASYNYGKYVVTYDYWGQGTQVTVSS | high polyreactivity
26 | QVQLVESGGGLVQAGGSLRLSCAASGLIMRTNVMGWYRQPPGKERELVAAINFRTGSTYYADSVKGRFTISRDHAKNTVYLQMNSLKPEDTAVYYCAKAERRHYDYWGQGTQVTVSS | low polyreactivity
27 | QVHLVESGGGLVQPGGTLRLTCAASGSTFGSNARGWYRLAPGKESELVAAITRRGGSTYYADSVKGRFTISRDNAKNTVDLQMNSLKPEDTAVYYCDNVYYYLYTRYDYWGQGTEVTVSS | low polyreactivity
28 | QVQLVESGGGLVQAGGSLRLSCAASGNIFYSYAMGWYRQAPGKERELVAAISSSGGRTYYADSVKGRFTISRDNAKNTVYLQMNSLKPEDTAVYYCNAYVQVLRYVFGRPTVYPYDYWGQGTQVTVSS | high polyreactivity
29 | QVPLVESGGGLVQAGGSLRLSCAASGSIFRNYALGWYRQAPGKERELVAGITQRGGRTYYADSVKGRFTSSRDNAKNTVYLQLNSLKPEDTAVYYCAASYRGVPEYDSWGQGTQVTVSS | high polyreactivity
30 | QVQLVESWGGLVQAGGSLRLSCAASGLTFNYYAMGWYRQAPGKERELVAAITSSGGSTYYADSVKGRFTISRDNAKNTVYLQMNSLKPEDTAVYYCNADVYAHRYIYGFDYWGQGTQVTVSS | high polyreactivity
31 | QVQLVESGGGLVQAGASLRLSCAASGSISKSYAMGWYRQAPGKERELVAAISWRGGSTYADSVKGRFTISRDNAKNTVYLQMNSLKPEDTAVYYCAATNYGTFWGGQSERYDYWGQGTQVTVSS | low polyreactivity
32 | QVQLVDSGGGLVQAGGSLRLSCAASGNTFSGNTMGWYRQAPGKERELVAAIRFTGGSTTYADSVKGRFTISRDNAKNTVYLQMNSLKPEDTAVYYCNTDWVSFRSIYHEYDYWGQGTQVTVSS | low polyreactivity
33 | QVQLVESGGGIVQAGRSLRLSCAASGSIFDFNAMGWYRQAPGKERELVAAITWGGGSTYYAYSVKGRFTNSRDNEKNTVYLQIKSLKPEDTAVYYCNAAYGRYRYDYWGQGTQVTVSS | low polyreactivity
34 | QVQLVESGGGLVQAGGSLRLSCAASGITYCANTMGWYRQAPGKERELVADITVTGDGTYYADSVKGRFTISRDNAKNTVYLQMNSLKPEDTAVYYCAADFWLVSFQWDFEYDYWGQGTQVTVSS | low polyreactivity
35 | QVQLVESGGGLVQAGGSLRLSCAASGRTLYGYAMGWYRQAPGKEREFVAAISRSGGRTYYADSVKGRFTISRDNAKNTVYLQMNSLKPEDTAVYYCAARQYQAKQPYGYYPGYGYWGQGTQVTVSS | high polyreactivity
36 | QVQLVESGGGLVQAGGSRRLSCAACGFIFEKNAMGWYRQAPGKERELVAAISGGGITNYADSVKGRFTISRDNEKKTVYLHMNSLKPQDTAVYYCAKTRRRLLTRYDYWGQGTQVTVSS | low polyreactivity
37 | QVQLVESGGGIVQAGGSLRLSFAASGSIFEGNALGWYRQEPGKEMEFVAAITKRGGSTYYADSVKGRFTISRDNAKNTVYLQMIWLKPEDTAGYYCAADRSYPRAGRYNYWGQGTQVTVSS | low polyreactivity
38 | QFQLVESGGGLLQAGGSLRLSCAASGSTFYRYVMGWYRQATGKERELVAAITWRGGTTYYADSVKGRFTISRDNAKNTVYLKMISLKPDDTAVYYCNADRGGLRWFWQVLYDYWGQGTQVTVSS | low polyreactivity
39 | QVQLVESGGGLLQAGGSLRLSCAASGHTLYRYARGWYRQAPGKERELVAAITSRGGSTFYADSVKGRFTISRDTAKNSVYLQMNRLQPEDTAVYYCNTARGTAPAHDYWGQGTQVTVSS | low polyreactivity
40 | QVQLVESGGGLVQAGGSLRLSCAASGFTFDYYTMGWSRQAPGKERELVAAISWSGGSTYYADSVKGRFTISRDNAKNTVYLQMNSLKPEDTAVYYCAVDGPKTDDIENYWGQGTQVTVSS | low polyreactivity
41 | QVQHVESGGGIVQAGGSLRLSCSASGSTFFYNTMGWYRHAPGKERELVAAISYRTGSTYYADSVKGRFTISRDNAKNSVYLQMNSLKTEDTAVYYCNARYPYRYGYWGQGTQVTVSS | high polyreactivity
42 | QVQLVESGGGLVQAGRSLRLSCAASGRTSAYYAMGWYRQPPGKERELVAGITRGGRTNYADSVKGRFTISRDNAKNTVYLQLNSLKPEDTAVYYCAAKYVYYLNSRTSGYWGQGSQVTVSS | high polyreactivity
43 | QVKLVESGGGLVQAGGSLRLSCAASGSIFYTYAMGWYRPAPGKERELVAAISSGGSTDYADSVKGRFTISRDNAKNTVYLQMNSLKPEDTAVYYCAAVAVELASEYDYWGQGTQVTVSS | low polyreactivity
